Laboratory results taken from US20200054764A1, “MEDICAL USE OF ANTI-C MET ANTIBODY-CYTOTOXIC DRUG CONJUGATE” (priority 2016, published 2020).

Experiments:
c-Met antigen Sema-His = target: T1, c-Met antigen Sema-His (Homo sapiens, UniProt P08581); assay: SPR (BIACore) affinity to c-Met antigen; type: binding; conditions: 1:1 Langmuir model
T1 construct: Flag (C); His tag (6xHis) (C); made in house; host or cells: 293F cells (Invitrogen, Cat # R790-07); vector pEE6.4; c-Met gene template origene RC217003
T1 sequence (P08581 with tags, fused parts or gaps limits assumed): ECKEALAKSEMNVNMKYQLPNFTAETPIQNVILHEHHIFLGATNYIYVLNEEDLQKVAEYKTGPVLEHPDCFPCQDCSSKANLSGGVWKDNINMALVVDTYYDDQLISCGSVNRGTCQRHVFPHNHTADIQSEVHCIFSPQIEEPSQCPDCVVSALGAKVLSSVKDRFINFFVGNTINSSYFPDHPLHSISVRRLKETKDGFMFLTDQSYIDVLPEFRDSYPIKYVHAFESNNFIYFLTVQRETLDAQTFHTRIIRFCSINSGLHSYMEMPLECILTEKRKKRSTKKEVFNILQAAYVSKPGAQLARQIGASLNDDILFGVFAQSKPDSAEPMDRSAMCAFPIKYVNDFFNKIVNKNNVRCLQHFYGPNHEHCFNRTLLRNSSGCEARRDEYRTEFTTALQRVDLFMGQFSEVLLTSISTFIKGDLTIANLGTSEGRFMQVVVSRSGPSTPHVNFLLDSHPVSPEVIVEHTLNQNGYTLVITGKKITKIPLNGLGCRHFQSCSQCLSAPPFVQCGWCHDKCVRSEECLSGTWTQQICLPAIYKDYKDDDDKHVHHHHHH
Description: The affinity of c-Met antibody to c-Met antigen Sema-His was detected by surface plasmon resonance (SPR) in the invention.
Anti-mouse IgG (GE Life Sciences catalog # BR-1008-38) or anti-human IgG (GE Life Sciences catalog # BR-1008-39) antibodies were respectively diluted to 30 μg/mL and 50 μg/mL by sodium acetate solution pH 5.0 (GE Healthcare, Cat # BR-1003-51). An amino coupling kit (GE Life Sciences, Cat # BR100050) […] the test channels and control channels on a CM5 chip (GE Life Sciences catalog # BR-1000-12), and the coupling level was set at 15000 RU. The c-Met antibody was diluted with Running buffer PBS (Hyclone, Cat # SH30256.01B)+0.05% P20 (GE Life Sciences, Cat # BR-1000-54) to 1.5 μg/mL. Antigen Sema-His was diluted to 200 nM with running buffer, and then diluted at a 1:2 dilution with the same buffer until 0.78 nM was reached. The diluted antibody passed through the test channel for 1 minute at a speed of 30 μL/min, and the antigen passed through the test channels and control channels for 3 minutes at the same speed. 10 minutes after dissociation, the flow speed was adjusted to 10 μL/min, and regeneration buffer was passed through test channels and control channels for 3 minutes. Data was fitted by BiaEvaluation 4.1 after double deduction, and the fitting model was a 1:1 Langmuir model.

[1] = Biophysical stability: deamination by LC-MS; type: physicochemical; conditions: 4° C., 3.5 months
Description: To evaluate the biophysical stability of the anti c-Met antibodies of the invention, such as the presence of glycosylation and deamination sites and stability, LC-MS analysis was used.
The molecular weight of the heavy and light chains was directly detected by LC-MS to analyze glycosylation. Deamination was analyzed by LC-MS at 4° C. for long time (at least 3 months), or at 40° C. for 21 days under an accelerated condition. Samples treated with different conditions were diluted to 2 mg/mL with pH 7.2 Tris-HCl; final concentrations of 10 mM of TCEP and 6M of urea (AMRESCO, Cat #0378)3 were added, then the samples were incubated for 20 minutes at 37° C. IAA (Sigma-Aldrich, Cat # I1149) with a final concentration of 20 mM was added and was incubated for 15 minutes in darkness to protect the sulfhydryl group. The pH of the sample was adjusted by dilution with Tris-HCl, pH 7.2, and protease (Sigma-Aldrich, Cat # T6567) was added at a ratio by weight of 10:1 (protein: enzyme). The samples were incubated at 37° C. for 25 minutes, and then formic acid with a final concentration of 0.1% (Fluca, Cat #94318) was added to terminate the reactions. Samples were centrifuged and analyzed by LC-MS.
BiopharmaLynx was used to analyze the presence of deamination. […] Peak area was obtained by integration, and the percentages of deamination and oxidation product were calculated.

MKN45 cells = assay: FACS binding to cell line MKN45, which highly expresses c-Met; set-up: species or system human; conditions: flow cytometry, read-out: MKN45/FCAS Binding activity
Description: A FACS method was used to detect the binding activity of c-Met humanized antibodies with the cell line MKN45, which highly expresses c-Met.
MKN45 cells (JCRB, Cat No.: JCRB0254) were resuspended in RPMI1640 medium (GIBCO, Cat No.: 11835-030) which contains 10% (v/v) fetal calf serum (FBS GIBCO, Cat No.: 10099-141) and Penicillin/Streptomycin (GIBCO, Cat No.: 15070-063) to reach 10,000,000 cells/mL. 2 mL of resuspended MKN45 cells was added to 96-well microtiter plate (Corning, Cat No.: 3799) at 150,000 cells/well, and 8 concentrations of c-Met antibody (5-fold gradient diluted, starting from 20 μg/mL) were added to the corresponding wells, and the final volume was 100 μL. The plate was incubated for 1 hour at 4° C. FACS buffer (PBS comprising 2.5% (v/v) FBS (Hyclone, Cat: SH30256.01B)) was added. The plate was centrifuged under 4° C. at 1300 rmp for 4 minutes, and the supernatant was discarded. This procedure was repeated three times. 100 μL of secondary antibodies (Fluorescence labeled goat-anti-mouse secondary antibodies with 1:200 dilution, Biolegend, Cat No. 405307; Fluorescence labeled anti-human secondary antibody with 1:30 dilution, Biolegend, Cat No. 409304) were added to each well, and the plate was incubated for 1 hour at 4° C. […] FACS buffer was added to resuspend the cells, and the prepared samples were detected by flow cytometry (BD FACS Array).

B1: Ab-9 (antibody)
heavy: QVTLKESGPVLVKPTETLTLTCTVSGFSLPNYGVHWVRQPPGKALEWLAVIWSGGSTNYAAAFVSRLRISKDTSKSQVVFTMNNMDPVDTATYYCARNHDNPYNYAMDYWGQGTTVTVSSASTKGPSVFPLAPCSRSTSESTAALGCLVKDYFPEPVTVSWNSGALTSGVHTFPAVLQSSGLYSLSSVVTVPSSNFGTQTYTCNVDHKPSNTKVDKTVERKCCVECPPCPAPPVAGPSVFLFPPKPKDTLMISRTPEVTCVVVDVSHEDPEVQFNWYVDGVEVHNAKTKPREEQFNSTFRVVSVLTVVHQDWLNGKEYKCKVSNKGLPAPIEKTISKTKGQPREPQVYTLPPSREEMTKNQVSLTCLVKGFYPSDIAVEWESNGQPENNYKTTPPMLDSDGSFFLYSKLTVDKSRWQQGNVFSCSVMHEALHNHYTQKSLSLSPGK
light: DIVLTQSPASLAVSPGQRATITCRANKSVSTSTYNYLHWYQQKPGQPPKLLIYLASNLASGVPARFSGSGSGTDFTLTINPVEANDTANYYCQHSRDLPPTFGQGTKLEIKRTVAAPSVFIFPPSDEQLKSGTASVVCLLNNFYPREAKVQWKVDNALQSGNSQESVTEQDSKDSTYSLSSTLTLSKADYEKHKVYACEVTHQGLSSPVTKSFNRGEC
c-Met antigen Sema-His
  Kd: 4 nM
[1]
  Analysis of deamination: percentage of deaminated molecules: 0.66%
MKN45 cells
  EC50: 1.6 nM
